Measured values as given in the supplement of paper PMC9170038.

System: MS2 coat protein
Experiment: apparent KD of MS2 coat protein; higher = weaker reporter binding
Details: Eterna round: R107
Procedure: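 RNA-MaP round R107: designed RNA switches with theophylline, tryptophan, arginine or FMN aptamers are transcribed on-chip within common flanks. They are titrated with SNAP-549-labelled MS2 coat protein in RNA-MaP buffer (100 mM Tris pH 7.5, 80 mM KCl, 4 mM MgCl2), without ligand or with the indicated ligand. Median apparent KD per design.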

[1] = input ligand: theophylline 20 uM
[2] = input ligand: theophylline 2 mM
[3] = input ligand: tryptophan 2.4 mM

Sequence	apparent KD of MS2 coat protein (input ligand: arginine 13.2 mM) [nM]	apparent KD of MS2 coat protein (input ligand: none) [nM]	apparent KD of MS2 coat protein [1] [nM]	apparent KD of MS2 coat protein [2] [nM]	apparent KD of MS2 coat protein [3] [nM]
AUCAUGGCCAUCGAUACCAGCUACAUGAGGAUCACCCAUGUAAACGGCCCGGUGAGAUGUAGCCCUUGGCAGCGAAGGGUCAAGG [Ratimatiqu]	12.4	16.5	23.1	120	17
AUACAUGAGGAUCACCCAUGUCAUUCAGAAGGAGCGUCAUUUUAGACAGGUAGGUCGCUGAUAUUAUCUUUAUACUUUAUGUUUA [JR_ExcArginiA_Sub023]	19.1	18.3	27.3	18.2	19.9
GUAUUCAUGACGGCCGCCACUGCAAGCCUCCUCAUGGCAGAUUGACAUGAGGAUCACCCAUGUCUCAGGACCGGGUCUGGCAUCC [theeternabot_sameState_MS2_Trp_B_43]	65.8		244	346	
GGACUAACCUGAAGGAGCGACGCGCAGAAACUGCAAUUUCCUCCACACGAGGAUCACCCGUGUCAGGUAGGUCGCAGGUUAGUCG [ArgBX 29]	13.1	14.1	18.3	15.4	15.3
GGUGGCGUGACGGAUACCAGCCACCACCGCAAGACCACAUGAGGAUCACCCAUGUUGGGUGGCCCUUGGCAGCUGUCGUGCGGCG [#1 Same State - Theophylline B Attempt #19 (HarryS)]	15	213	331	475	110
AGCGUGCAUAGGAAAACUAUGUACGCAAAUCGAGGACCGGUACGGCCGCCACUCGUCCUCAACAUGAGGAUCACCCAUGUAAUAA [Mat - Exclusion - Trytophan A - D9]	18.9		26.7	22.5	
AGCACACAUCCUGAUACCAGAGACAUGAGGAUCACCCAUGUCCGAUCGUCCUGCCUCAGACUCCCUUGGCAGCAGGAUGUGUGCU [Exclusion Theophylline B GF7]	12.5		18.6		13.4
GCAACGCUGUCGGCCGCCACUUUUACAUUGGCCGUGCUGUCUCUACAUGAGGAUCACCCAUGUGGAAGGACCGGGACAGCACACU [Arzaleer]	21.2		39.6	44.7	
AACGUGAACGUGGUAUACCCGUGUGCCGAAGGAGCGCCCGUAAGGGCAGGUAGGUCGCGGUCGACAUGAGGAUCACCCAUGUUUG	39.5	74.6	84.2	106	81.6
UCACAUGAGGAUCACCCAUGUACAGGCGAUACCAGCCGUACAUUGGGCCCUUGGCAGCGCAUCGAGACCUUUAUAAGCACCUCGG [Ceusbi]	24.5		127		81.6
GUGCCGCAUUCACAUGAGGAUCACCCAUGUCGAGGACCGGUACGGCCGCCACUCGACGUGCUUACAGGUCCUUUAAGGCCCAAUA [Usislaan]	79		200	221	
ACAUGAGGAUCACCCAUGUGUGUAAAUCCUCGAGGACCGGUACGGCCGCCACUCGAACGAGUGUAAGUUGAAUGUAACAUUCAAC [SS Trp A v1]	47.3		123	104	
GCAUUACAUGAGGAUCACCCAUGUCUAGAUACCAGAUUUGUUUGAAUCCCUUGGCAGCUAGUGGACCACCGUACACGACAUACUA [theeternabot_sameState_MS2_Theo_A_17]	29.8		47.1		44
ACAUGUCUUAUAGAUACCAGACAGGACAUGAGGAUCACCCAUGUAAUGUAUACAUGCAGAGUCCCUUGGCAGCUAAGGUCAUAGA [#26 Same State - Theophylline B]	54.6		110		92.8
AACAUGAGGAUCACCCAUGUAAUAUGGGAUACCAGAGACGAAAGUCUCCCUUGGCAGCCCAAGCUGCUCCAUACGAAAGUAUGGU [Theophylline A 16]	50.5		43.7		64.7
AACUGGAUCAGUGAUACCAGAGACAUGAGGAUCACCCAUGUACAUGAGGAUCACCCAUGUCUCCCUUGGCAGCACAGCAGGGAGC [Exclusion Theophylline B GF 17]	32.8	70	70.3	442	64.1
AUUGUGAACCUGAUCGUAUAAUGUAGCGAUACCAGUAUAAUACAUUACCCUUGGCAGCGCGACACAUGAGGAUCACCCAUGUAAG [theeternabot_exclusion_MS2_Theo_A_10]	19.6		26.9		23
UGGUCCGUCGGAAGGAGCGACAUGAGGAUCACCCAUGUCUCCCGUUAUGGGAGUUCUUUAGGUCAGGUAGGUCGCCGGCGGGUCA [#1 Exclusion - Arginine B Attempt #12 (Inspired by Omei)]	91.6	111	209	220	144
UUACAUGAGGAUCACCCAUGUUUACUAUGUCGAGGACCGGUACGGCCGCCACUCGUAUUUGAUGAUUUAGGUGCCACAAGUUAUU [JR_Nu_ExcTryptoA_Sub024]	16.1		26.6	22.6	
AUAUUAGACCUGGAUACCAGCGACAUGAGGAUCACCCAUGUAUGUGCAUCAGCCAUGAUAUGCCCUUGGCAGCCACCGAGGUCGU [YYTMULLIN]	14.1		17.9		15.1
CGCCACUCGAGUGAUCCUCACGAGUGGCUACGAGGACCGGUACGGCCGCCACUCGAAUUAACAUGAGGAUCACCCAUGUAAUCUA [Brourdmod08]	30		200	322	
GAAUCUACAAACGAUACCAGAUCCGGCUGCCACAUGAGGAUCACCCAUGUCUAGCGACUCAUCCCUUGGCAGCGUGUGCAUCCCG [theeternabot_sameState_MS2_Theo_B_37]	147		612		629
AGUAGCUGCCGAAGGAGCGCCGUGUUCCUACAUGAGGAUCACCCAUGUAGCGUUGGGUUACGGCAGGUAGGUCGCGGCAGAUAGG [#18 Same State - Arginine B]	23.1	30	38.2	24.5	22.4
CAUACUUUAGUAUGACAUGUGGGCAGUGAUACCAGAUACGAAAGUAUCCCUUGGCAGCACAACAUGAGGAUCACCCAUGUAAUUA [Theophylline A 2]	26.1		52		37.3
UCAUUUUUCACGGCCGCCACUUCAAGGUCCUGAGGCUGGGCAACACAUGAGGAUCACCCAUGUCGAAGGACCGGGUGAAGCUACC [theeternabot_sameState_MS2_Trp_B_34]	152		248	527	
AGCGACAUGCGUGAUACCAGCUACAUGAGGAUCACCCAUGUAAGUAGGAAACUACUGUGUAGCCCUUGGCAGCACAAUGCAUGUC [Exclusion - Theophylline B (Freestyle 24)]	20.3		37.2		20
AGAGUUAGACAAAAGUCUAGCUCACCAGAAGGAGCGUCCGAAAGGACAGGUAGGUCGCUGGUGCUUGAGGAUCACCCAAGUUCCU [ArgAS 22 #OpenEnded #AlternativeMS2]	82.7	96.1	121	204	128
AGCCCAUUACAUGAGGAUCACCCAUGUGAUACCAGUCAGGAAACUGACCCUUGGCAGCGCAUGAGGAUCACCCAUGCGCUGGGCA [Omei Theo A Exc A v6]	10		11.7		12.2
